Data on six molecules can be found in publication PMC5486051, “BrWRKY65, a WRKY Transcription Factor, Is Involved in Regulating Three Leaf Senescence-Associated Genes in Chinese Flowering Cabbage”.

Data set [1] deals with T1, GST-BrWRKY65 (Brassica rapa var. parachinensis …, UniProt A0ACM8RC22 1-261). Description: EMSA; shift abolished dose-dependently by unlabeled self competitor (100x, 1000x); LightShift Chemiluminescent EMSA Kit; native polyacrylamide gel (Figure 5 legend; Methods says SDS-PAGE); buffer, salt, pH and temperature not stated. Conditions: protein: recombinant; tags: GST (N-terminal, pGEX-4T-1); label: 5' biotin. (A gel shift assay detects complexes by their altered migration in electrophoresis.)
T1 sequence (A0ACM8RC22 entry or part of it): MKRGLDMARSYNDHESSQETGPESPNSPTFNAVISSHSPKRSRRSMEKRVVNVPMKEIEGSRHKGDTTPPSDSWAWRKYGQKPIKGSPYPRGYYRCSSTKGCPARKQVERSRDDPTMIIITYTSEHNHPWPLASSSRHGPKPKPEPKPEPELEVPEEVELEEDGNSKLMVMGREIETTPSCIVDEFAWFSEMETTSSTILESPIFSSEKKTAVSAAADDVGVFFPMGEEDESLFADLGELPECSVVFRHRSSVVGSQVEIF

Data set [2] concerns the target T1, GST-BrWRKY65. Description: competition; unlabeled mutant, 100-1000x excess over N3; LightShift Chemiluminescent EMSA Kit; native polyacrylamide gel (Figure 5 legend; Methods says SDS-PAGE); buffer, salt, pH and temperature not stated. Conditions: protein: recombinant; tags: GST (N-terminal, pGEX-4T-1); label: unlabeled.
In data set [3] the target is T1, GST-BrWRKY65. Description: competition; unlabeled mutant, 100-1000x excess over N1; LightShift Chemiluminescent EMSA Kit; native polyacrylamide gel (Figure 5 legend; Methods says SDS-PAGE); buffer, salt, pH and temperature not stated. Conditions: protein: recombinant; tags: GST (N-terminal, pGEX-4T-1); label: unlabeled.
The target of data set [4] is T1, GST-BrWRKY65. Description: competition; unlabeled mutant, 100-1000x excess over N2; LightShift Chemiluminescent EMSA Kit; native polyacrylamide gel (Figure 5 legend; Methods says SDS-PAGE); buffer, salt, pH and temperature not stated. Conditions: protein: recombinant; tags: GST (N-terminal, pGEX-4T-1); label: unlabeled.

B1: BrDIN1 promoter W-box probe (dsDNA)
DNA 1: CGAGAGACCTGATTAAGAACATCTGACTTCAATTAAACCAATCACACTAC
DNA 2: GTAGTGTGATTGGTTTAATTGAAGTCAGATGTTCTTAATCAGGTCTCTCG
Regarding B1, in the data set with GST-BrWRKY65 [1], the binding result is “binds”.

B2: BrDIN1 mutant W-box competitor (dsDNA)
DNA 1: CGAGAGACCTGATTAAGAACATAAAAAATCAATTAAACCAATCACACTAC
DNA 2: GTAGTGTGATTGGTTTAATTGATTTTTTATGTTCTTAATCAGGTCTCTCG
In the case of B2, the binding result with GST-BrWRKY65 [2] is given as “no binding”.

B3: BrNYC1 promoter W-box probe (dsDNA)
DNA 1: GATCGCCAGATTGCAGTGACGGTTGACTTGAATAAAGAAAAATGAAAAAA
DNA 2: TTTTTTCATTTTTCTTTATTCAAGTCAACCGTCACTGCAATCTGGCGATC
For B3, the binding result with GST-BrWRKY65 [1] was “binds”.

B4: BrNYC1 mutant W-box competitor (dsDNA)
DNA 1: GATCGCCAGATTGCAGTGACGGAAAAAATGAATAAAGAAAAATGAAAAAA
DNA 2: TTTTTTCATTTTTCTTTATTCATTTTTTCCGTCACTGCAATCTGGCGATC
Turning to B4, the binding result in the data set with GST-BrWRKY65 [3] is “no binding”.

B5: BrSGR1 promoter W-box probe (dsDNA)
DNA 1: TTTCACTCGTATCGTAAGATTGTTGACTCCAACACGCAAACAACAAAAAC
DNA 2: GTTTTTGTTGTTTGCGTGTTGGAGTCAACAATCTTACGATACGAGTGAAA
In the case of B5, in the data set with GST-BrWRKY65 [1], the binding result is on record as “binds”.

B6: BrSGR1 mutant W-box competitor (dsDNA)
DNA 1: TTTCACTCGTATCGTAAGATTGAAAAAACCAACACGCAAACAACAAAAAC
DNA 2: GTTTTTGTTGTTTGCGTGTTGGTTTTTTCAATCTTACGATACGAGTGAAA
Regarding B6, in the data set with GST-BrWRKY65 [4], the binding result was “no binding”.
